Molecular target: T1, recombinant human IL4 (human, UniProt P05112 25-153)
T1 construct: Bought protein; also called human IL4 (Millipore catalog # IL004)
T1 sequence (looked up): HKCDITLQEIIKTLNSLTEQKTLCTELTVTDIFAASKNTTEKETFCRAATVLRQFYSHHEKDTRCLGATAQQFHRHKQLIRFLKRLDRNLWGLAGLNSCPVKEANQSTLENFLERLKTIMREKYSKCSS
Assay: SPR (Biacore), captured antibody, IL4 as analyte

Kd: 1.02 pM
B1: Binding Protein 18, (anti-IL4 × anti-IL13) × anti-IL13 (bispecific antibody, human IgG1, kappa, lambda)
heavy 1: not shown
light 1: DIVLTQSPASLAVSLGQRATISCRASESVDSYGQSYMHWYQQKAGQPPKLLIYLASNLESGVPARFSGSGSRTDFTLTIDPVQAEDAATYYCQQNAEDSRTFGGGTKLEIKGQPKAAPSVTLFPPSSEELQANKATLVCLISDFYPGAVTVAWKADSSPVKAGVETTTPSKQSNNKYAASSYLSLTPEQWKSHRSYSCQVTHEGSTVEKTVAPTECS
heavy 2: not shown
light 2: not shown
notes: Bispecific trivalent (CODV-Fab) × Fab-IgG1 Fc; kappa on CODV-LC, lambda on Fab-arm-LC; CODV-HC knob-RF, Fab-arm-HC hole; also called IL13 × (IL4 × IL13)
